Molecular target: T1, keratin 1 (K1) (UniProt P04104 1-637)
T1 sequence (looked up): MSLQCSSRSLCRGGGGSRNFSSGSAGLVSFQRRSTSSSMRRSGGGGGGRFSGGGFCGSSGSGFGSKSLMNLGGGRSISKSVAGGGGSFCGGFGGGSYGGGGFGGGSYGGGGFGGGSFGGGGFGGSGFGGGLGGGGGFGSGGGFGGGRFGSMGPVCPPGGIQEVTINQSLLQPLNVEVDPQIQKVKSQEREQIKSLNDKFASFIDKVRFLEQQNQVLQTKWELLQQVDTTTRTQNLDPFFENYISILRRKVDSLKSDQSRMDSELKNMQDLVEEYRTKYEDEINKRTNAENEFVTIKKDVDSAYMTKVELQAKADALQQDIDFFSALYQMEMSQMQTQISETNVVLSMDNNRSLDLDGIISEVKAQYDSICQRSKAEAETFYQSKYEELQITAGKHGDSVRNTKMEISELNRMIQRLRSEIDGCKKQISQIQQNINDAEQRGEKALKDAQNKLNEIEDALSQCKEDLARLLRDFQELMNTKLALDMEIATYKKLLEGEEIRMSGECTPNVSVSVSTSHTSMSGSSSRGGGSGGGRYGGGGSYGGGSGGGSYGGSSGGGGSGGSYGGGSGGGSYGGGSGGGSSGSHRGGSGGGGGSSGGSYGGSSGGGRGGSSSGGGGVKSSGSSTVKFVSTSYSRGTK
Assay: co-sedimentation

binding result: binds
B1: keratin 10 (K10), full length (natural protein, UniProt P02535-2 1-561, looked up)
chain: MSVLYSSSSKQFSSSRSGGGGGGGSVRVSSTRGSLGGGYSSGGFSGGSFSRGSSGGGCFGGSSGGYGGFGGGGSFGGGYGGSSFGGGYGGSSFGGGSFGGGGSFGGGSFGGGSYGGGFGGGGFGGDGGSLLSGNEKVTMQNLNDRLASYMDKVRALEESNYELEGKIKEWYEKHGNSSQREPRDYSKYYKTIEDLKGQILTLTTDNANVLLQIDNARLAADDFRLKYENEVTLRQSVEADINGLRRVLDELTLSKSDLEMQIESLNEELAYLKKNHEEEMRDLQNVSTGDVNVEMNAAPGVDLTQLLNNMRNQYEQLAEKNRKDAEEWFNQKSKELTTEIDSNIEQMSSHKSEITELRRTVQGLEIELQSQLALKQSLEASLAETEGRYCVQLSQIQSQISALEEQLQQIRAETECQNAEYQQLLDIKTRLENEIQTYRSLLEGEGSSSGGGGGRRGGSGGGSYGGSSGGGSYGGSSGGGGSYGGSSGGGGSYGGGSSGGGSHGGSSGGGYGGGSSSGGAGGHGGSSGGGYGGGSSSGGQGGSGGFKSSGGGDQSSKGPRY

From publication doi:10.1101/2020.04.30.070086 (bioRxiv, 2020)
